{"source": "patent US20240034813A1", "about": "(Janssen / Centocor, published 2024)", "binders": {"B1": {"name": "amivantamab (bispecific antibody, human IgG1, kappa)", "heavy 1": "not shown", "light 1": "not shown", "heavy 2": "not shown", "light 2": "DIQMTQSPSSVSASVGDRVTITCRASQGISNWLAWFQHKPGKAPKLLIYAASSLLSGVPSRFSGSGSGTDFTLTISSLQPEDFATYYCQQANSFPITFGQGTRLEIKRTVAAPSVFIFPPSDEQLKSGTASVVCLLNNFYPREAKVQWKVDNALQSGNSQESVTEQDSKDSTYSLSSTLTLSKADYEKHKVYACEVTHQGLSSPVTKSFNRGEC", "notes": "The samples tested were high concentration (160 mg/mL) formulations, fresh or stored or stressed; also called JNJ-61186372; bispecific EGFR-cMet antibody"}}, "key": {"[1]": {"molecular_target": "T1, recombinant human EGFR/ErbB1/HER1 with C-terminal His tag, Cy5-labeled (human, UniProt P00533 25-645, Cy5 label (reacted with Cy5 Mono NHS Ester; sites not stated))", "T1 construct": "Commercial protein; also called Cy5-EGFR; Cy5-labeled EGFR antigen; not shown: C-terminal His tag", "assay": "competitive TR-FRET (Eu-amivantamab/Cy5-EGFR), EC50 ratio vs Reference Material; Ex. 11 drug product, 9 months at 5 C", "text": "(§1) In this procedure, varying concentrations of unlabeled bispecific EGFR-cMet antibody sample compete with donor fluorophore (Europium (Eu) chelate) labeled bispecific EGFR-cMet antibody for binding to an acceptor fluorophore (Cy5)-labeled EGFR antigen. Excitation of the donor fluorophore results in a transfer of energy to the bound acceptor fluorophore (FRET process). The resultant FRET is detected by emission of light at 665 nm using a microplate reader capable of measuring time-resolved fluorescence. Sample dose response curves are compared to the RM.\n(§2) EGFR Binding Materials and Methods. Certified commercial EGFR, a recombinant human EGFR/ErbB1/HER1 with C-terminal His tag is reacted with certified commercial Cy5 Mono NHS Ester to produce Cy5-labeled EGFR. Validated bispecific EGFR-cMet antibody is reacted with certified commercial Europium (Eu) chelate to produce Eu-labeled bispecific EGFR-cMet antibody. […] Fluorescence is then measured by spectrophotometry at 665 nm, plotted against antibody concentration and analyzed by a four-parameter logistic model. The antibody concentration required to obtain half of the maximum fluorescence response (EC50) is determined for RM, assay control and samples. The potencies of assay control and samples are calculated based on the ratio of the sample (or control) and RM EC50 values and reported as a percentage activity relative to the RM."}, "[2]": {"molecular_target": "T2, recombinant cMet/HGFR with c-terminal His-tag, Cy5-labeled (UniProt P08581 25-932, limits assumed, Cy5 label (reacted with Cy5 Mono NHS Ester; sites not stated))", "T2 construct": "Commercial protein; also called Cy5-c-MET; Cy5-labeled c-MET antigen; not shown: C-terminal His-tag", "assay": "competitive TR-FRET (Eu-amivantamab/Cy5-c-MET), EC50 ratio vs Reference Material; Ex. 11 drug product, 1 month at 40 C", "text": "as §1, with “(Cy5)-labeled c-MET” for “(Cy5)-labeled EGFR”, “the Reference Material (RM).” for “the RM.”\nas §2, with “c-MET Binding” for “EGFR Binding”, “commercial cMet,” for “commercial EGFR,”, “recombinant cMet/HGFR” for “recombinant human EGFR/ErbB1/HER1”, “with c-terminal His-tag” for “with C-terminal His tag”, “Cy5-labeled c-MET.” for “Cy5-labeled EGFR.”, “produce Eu labeled” for “produce Eu-labeled”"}, "[3]": {"molecular_target": "T2, recombinant cMet/HGFR with c-terminal …", "assay": "competitive TR-FRET (Eu-amivantamab/Cy5-c-MET), EC50 ratio vs Reference Material; Ex. 11 drug product, 6 months at 25 C", "text": "as §1, with “(Cy5)-labeled c-MET” for “(Cy5)-labeled EGFR”, “the Reference Material (RM).” for “the RM.”\nas §2, with “c-MET Binding” for “EGFR Binding”, “commercial cMet,” for “commercial EGFR,”, “recombinant cMet/HGFR” for “recombinant human EGFR/ErbB1/HER1”, “with c-terminal His-tag” for “with C-terminal His tag”, “Cy5-labeled c-MET.” for “Cy5-labeled EGFR.”, “produce Eu labeled” for “produce Eu-labeled”"}, "[4]": {"molecular_target": "T2, recombinant cMet/HGFR with c-terminal …", "assay": "competitive TR-FRET (Eu-amivantamab/Cy5-c-MET), EC50 ratio vs Reference Material; Ex. 2 Formulation 3 (acetate), 1 month at 40 C", "text": "as §1, with “(Cy5)-labeled c-MET” for “(Cy5)-labeled EGFR”, “the Reference Material (RM).” for “the RM.”\nas §2, with “c-MET Binding” for “EGFR Binding”, “commercial cMet,” for “commercial EGFR,”, “recombinant cMet/HGFR” for “recombinant human EGFR/ErbB1/HER1”, “with c-terminal His-tag” for “with C-terminal His tag”, “Cy5-labeled c-MET.” for “Cy5-labeled EGFR.”, “produce Eu labeled” for “produce Eu-labeled”"}, "[5]": {"molecular_target": "T1, recombinant human EGFR/ErbB1/HER1 with …", "assay": "competitive TR-FRET (Eu-amivantamab/Cy5-EGFR), EC50 ratio vs Reference Material; Ex. 12 drug product with rHuPH20, 3 months at 40 C", "text": "as §1, §2"}, "[6]": {"molecular_target": "T1, recombinant human EGFR/ErbB1/HER1 with …", "assay": "competitive TR-FRET (Eu-amivantamab/Cy5-EGFR), EC50 ratio vs Reference Material; Ex. 2 Formulation 2 (50 mM histidine), 3 months at 5 C", "text": "as §1, §2"}, "[7]": {"molecular_target": "T2, recombinant cMet/HGFR with c-terminal …", "assay": "competitive TR-FRET (Eu-amivantamab/Cy5-c-MET), EC50 ratio vs Reference Material; Ex. 2 Formulation 1 (10 mM histidine), T0, 25 C table", "text": "as §1, with “(Cy5)-labeled c-MET” for “(Cy5)-labeled EGFR”, “the Reference Material (RM).” for “the RM.”\nas §2, with “c-MET Binding” for “EGFR Binding”, “commercial cMet,” for “commercial EGFR,”, “recombinant cMet/HGFR” for “recombinant human EGFR/ErbB1/HER1”, “with c-terminal His-tag” for “with C-terminal His tag”, “Cy5-labeled c-MET.” for “Cy5-labeled EGFR.”, “produce Eu labeled” for “produce Eu-labeled”"}, "[8]": {"molecular_target": "T2, recombinant cMet/HGFR with c-terminal …", "assay": "competitive TR-FRET (Eu-amivantamab/Cy5-c-MET), EC50 ratio vs Reference Material; Ex. 3 acetate formulation, 6 months at 25 C then shaking up to 72 h", "text": "as §1, with “(Cy5)-labeled c-MET” for “(Cy5)-labeled EGFR”, “the Reference Material (RM).” for “the RM.”\nas §2, with “c-MET Binding” for “EGFR Binding”, “commercial cMet,” for “commercial EGFR,”, “recombinant cMet/HGFR” for “recombinant human EGFR/ErbB1/HER1”, “with c-terminal His-tag” for “with C-terminal His tag”, “Cy5-labeled c-MET.” for “Cy5-labeled EGFR.”, “produce Eu labeled” for “produce Eu-labeled”"}}}
{"binder": "B1", "values": [{"measurement": "EGFR Binding activity relative to Reference Material (%)", "setting": "[1]", "result": 90, "unit": "%"}, {"measurement": "cMET Binding activity relative to Reference Material (%)", "setting": "[2]", "result": 84, "unit": "%"}, {"measurement": "cMET Binding activity relative to Reference Material (%)", "setting": "[3]", "result": 113, "unit": "%"}, {"measurement": "cMET Binding % activity relative to RM", "setting": "[4]", "result": 100, "unit": "%"}, {"measurement": "EGFR Binding activity relative to Reference Material (%)", "setting": "[5]", "result": 9, "unit": "%"}, {"measurement": "EGFR Binding % activity relative to RM", "setting": "[6]", "result": 96, "unit": "%"}, {"measurement": "cMET Binding % activity relative to RM", "setting": "[7]", "result": 87, "unit": "%"}, {"measurement": "cMET Binding % activity relative to RM", "setting": "[8]", "result": 97, "unit": "%"}]}
